{"source": "patent US20040229260", "key": {"[1]": {"target": "protein encoded by the partial P43 cDNA clone"}, "[2]": {"target": "T1, polypeptide encoded by clone J2 (partial sequence of putative human N-acetylglucosamine-6-phosphate deacetylase)", "T1 chain": "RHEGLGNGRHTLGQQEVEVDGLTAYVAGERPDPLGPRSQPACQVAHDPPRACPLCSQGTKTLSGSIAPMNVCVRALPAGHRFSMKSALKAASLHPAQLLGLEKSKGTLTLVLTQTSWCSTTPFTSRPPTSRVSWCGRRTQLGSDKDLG"}, "[3]": {"target": "T2, protein encoded by clone L20 (identical to amino acids 104-420 of NEFA), P80303", "T2 chain": "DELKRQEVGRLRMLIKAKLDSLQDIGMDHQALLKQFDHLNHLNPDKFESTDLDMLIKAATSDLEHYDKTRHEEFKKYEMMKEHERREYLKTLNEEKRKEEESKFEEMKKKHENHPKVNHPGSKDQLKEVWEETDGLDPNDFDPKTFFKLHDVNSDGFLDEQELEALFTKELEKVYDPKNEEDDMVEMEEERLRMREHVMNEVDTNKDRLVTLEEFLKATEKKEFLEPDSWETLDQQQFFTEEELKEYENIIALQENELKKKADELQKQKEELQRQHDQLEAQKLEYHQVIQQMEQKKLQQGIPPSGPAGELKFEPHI"}, "[4]": {"target": "protein encoded by clone L12"}, "[5]": {"target": "protein encoded by clone B11 (cDNA insert homologous to the C-terminal end of CTP-Phosphoenolamine cytidylyltransferase), Q99447", "sequence (Q99447 213-389)": "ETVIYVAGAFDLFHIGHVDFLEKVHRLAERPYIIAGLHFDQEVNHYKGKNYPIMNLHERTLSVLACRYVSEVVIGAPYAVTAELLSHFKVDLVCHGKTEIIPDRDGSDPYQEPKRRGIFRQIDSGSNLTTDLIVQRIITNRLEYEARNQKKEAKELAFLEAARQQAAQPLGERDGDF"}, "[6]": {"target": "T3, protein encoded by clone B33 (cDNA insert homologous to C-terminus of Nucleobindin), Q02818", "T3 chain": "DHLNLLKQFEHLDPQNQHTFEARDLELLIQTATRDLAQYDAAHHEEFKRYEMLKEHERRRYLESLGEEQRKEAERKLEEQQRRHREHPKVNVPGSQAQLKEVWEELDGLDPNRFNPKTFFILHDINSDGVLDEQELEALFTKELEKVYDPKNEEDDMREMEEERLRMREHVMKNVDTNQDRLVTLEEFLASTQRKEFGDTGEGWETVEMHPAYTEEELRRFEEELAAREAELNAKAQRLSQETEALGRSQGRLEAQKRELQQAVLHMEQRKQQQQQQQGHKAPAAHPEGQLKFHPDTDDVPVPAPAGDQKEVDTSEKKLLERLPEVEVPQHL"}, "[7]": {"target": "T4, bacterially produced caspase-8 (in-vitro protease assay of Example 2.4), Q14790", "T4 chain": "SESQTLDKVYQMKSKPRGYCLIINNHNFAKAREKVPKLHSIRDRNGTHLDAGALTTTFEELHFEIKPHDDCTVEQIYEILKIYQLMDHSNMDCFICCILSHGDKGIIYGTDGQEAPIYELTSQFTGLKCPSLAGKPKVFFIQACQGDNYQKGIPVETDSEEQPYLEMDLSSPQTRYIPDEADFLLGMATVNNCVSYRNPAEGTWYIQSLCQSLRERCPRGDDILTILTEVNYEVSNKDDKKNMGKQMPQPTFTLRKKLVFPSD"}}, "data": [{"protein": "caspase 9 expressed in E. coli as Histidine tagged subunit 2-subunit 1 (S2-S1) fusion protein (protein) GALESLRGNADLAYILSMEPCGHCLIINNVNFCRESGLRTRTGSNIDCEKLRRRFSSLHFMVEVKGDLTAKKMVLALLELAQQDHGALDCCVVVILSHGCQASHLQFPGAVYGTDGCPVSVEKIVNIFNGTSCPSLGGKPKLFFIQACGGEQKDHGFEVASTSPEDESPGSNPEPDATPFQEGLRTFDQLDAISSLPTPSDIFVSYSTFPGFVSWRDPKSGSWYVETLDDIFEQWAHSEDLQSLLLRVANAVSVKGIYKQMPGCFNFLRKKLFFKTS", "values": [{"measurement": "cleavage in the protease assay with bacterial lysate (1 or 4 RU)", "setting": "[1]", "value": "it was not cleaved by caspase-3 nor by caspase-9"}]}, {"protein": "caspase 3 expressed in E. coli as Histidine tagged subunit 2-subunit 1 (S2-S1) fusion protein (protein) SGISLDNSYKMDYPEMGLCIIINNKNFHKSTGMTSRSGTDVDAANLRETFRNLKYEVRNKNDLTREEIVELMRDVSKEDHSKRSSFVCVLLSHGEEGIIFGTNGPVDLKKITNFFRGDRCRSLTGKPKLFIIQACRGTELDCGIETDSGVDDDMACHKIPVEADFLYAYSTAPGYYSWRNSKDGSWFIQSLCAMLKQYADKLEFMHILTRVNRKVATEFESFSFDATFHAKKQIPCIVSMLTKELYFYH", "values": [{"measurement": "cleavage in the protease assay with bacterial lysate (1 or 4 RU)", "setting": "[1]", "value": "it was not cleaved by caspase-3 nor by caspase-9"}]}, {"protein": "bacterially produced caspase-8 (in-vitro protease assay of Example 2.4) (protein) SESQTLDKVYQMKSKPRGYCLIINNHNFAKAREKVPKLHSIRDRNGTHLDAGALTTTFEELHFEIKPHDDCTVEQIYEILKIYQLMDHSNMDCFICCILSHGDKGIIYGTDGQEAPIYELTSQFTGLKCPSLAGKPKVFFIQACQGDNYQKGIPVETDSEEQPYLEMDLSSPQTRYIPDEADFLLGMATVNNCVSYRNPAEGTWYIQSLCQSLRERCPRGDDILTILTEVNYEVSNKDDKKNMGKQMPQPTFTLRKKLVFPSD", "values": [{"measurement": "cleavage in vitro", "setting": "[2]", "value": "The polypeptide encoded by Clone J2 is cleaved in-vitro by caspase-8"}, {"measurement": "cleavage in vitro", "setting": "[3]", "value": "Clone L20 is cleaved by caspase 8 both in-vitro and in-vivo"}, {"measurement": "cleavage in the in-vitro protease assay (35S labeled protein, SDS-PAGE, autoradiography)", "setting": "[4]", "value": "Clone L12 is cleaved in-vitro by caspase-8 as shown by an in-vitro protease assay"}, {"measurement": "cleavage in the in-vitro protease assay", "setting": "[5]", "value": "Clone B11 was cleaved in-vitro by caspase-8 as demonstrated in the assay described in the above-mentioned Example 2.4"}, {"measurement": "cleavage in vitro", "setting": "[6]", "value": "Clone B33 was cleaved by caspase-8 both in-vitro and in-vivo"}]}, {"protein": "protein encoded by clone L5 (Tip60, Tat interacting protein 60 kDa, lacking amino acids 94 to 145) (protein) MAEVGEIIEGCRLPVLRRNQDNEDEWPLAEILSVKDISGRKLFYVHYIDFNKRLDEWVTHERLDLKKIQFPKKEAKTPTKNGLPGSRPGSPEREVKRKVEVVSPATPVPSETAPASVFPQNGAARRAVAAQPGRKRKSNCLGTDEDSQDSSDGIPSAPRMTGSLVSDRSHDDIVTRMKNIECIELGRHRLKPWYFSPYPQELTTLPVLYLCEFCLKYGRSLKCLQRHLTKCDLRHPPGNEIYRKGTISFFEIDGRKNKSYSQNLCLLAKCFLDHKTLYYDTDPFLFYVMTEYDCKGFHIVGYFSKEKESTEDYNVACILTLPPYQRRGYGKLLIEFSYELSKVEGKTGTPEKPLSDLGLLSYRSYWSQTILEILMGLKSESGERPQITINEISEITSIKKEDVISTLQYLNLINYYKGQYILTLSEDIVDGHERAMLKRLLRIDSKCLHFTPKDWSKRGKW", "values": [{"measurement": "cleavage in the in-vitro protease assay", "setting": "[7]", "value": "Clone L5 was cleaved in-vitro by caspase-8 in the in-vitro protease assay described in Example 2.4"}]}]}
